T1: CD96 (on 293T-CD96 cells and on T cells) (human) (UniProt P40200)
T1 sequence (looked up): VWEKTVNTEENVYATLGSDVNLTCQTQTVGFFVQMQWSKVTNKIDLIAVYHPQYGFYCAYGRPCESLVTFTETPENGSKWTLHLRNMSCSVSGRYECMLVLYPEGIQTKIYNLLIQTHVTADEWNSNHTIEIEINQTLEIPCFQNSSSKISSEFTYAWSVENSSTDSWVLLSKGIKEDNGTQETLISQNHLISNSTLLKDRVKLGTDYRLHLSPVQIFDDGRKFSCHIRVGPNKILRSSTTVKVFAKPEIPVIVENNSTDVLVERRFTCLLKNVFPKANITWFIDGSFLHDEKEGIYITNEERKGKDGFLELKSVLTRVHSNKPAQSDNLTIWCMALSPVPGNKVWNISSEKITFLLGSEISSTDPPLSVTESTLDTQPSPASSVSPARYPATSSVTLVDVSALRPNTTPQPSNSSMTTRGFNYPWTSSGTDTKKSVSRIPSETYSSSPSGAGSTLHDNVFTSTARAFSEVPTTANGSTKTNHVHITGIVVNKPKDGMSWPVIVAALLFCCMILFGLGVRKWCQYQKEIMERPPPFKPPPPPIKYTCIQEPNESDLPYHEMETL

T2: CD96-His (human, UniProt P40200-2 22-503, limits assumed)
T2 construct: not shown: His tag
T2 sequence (looked up): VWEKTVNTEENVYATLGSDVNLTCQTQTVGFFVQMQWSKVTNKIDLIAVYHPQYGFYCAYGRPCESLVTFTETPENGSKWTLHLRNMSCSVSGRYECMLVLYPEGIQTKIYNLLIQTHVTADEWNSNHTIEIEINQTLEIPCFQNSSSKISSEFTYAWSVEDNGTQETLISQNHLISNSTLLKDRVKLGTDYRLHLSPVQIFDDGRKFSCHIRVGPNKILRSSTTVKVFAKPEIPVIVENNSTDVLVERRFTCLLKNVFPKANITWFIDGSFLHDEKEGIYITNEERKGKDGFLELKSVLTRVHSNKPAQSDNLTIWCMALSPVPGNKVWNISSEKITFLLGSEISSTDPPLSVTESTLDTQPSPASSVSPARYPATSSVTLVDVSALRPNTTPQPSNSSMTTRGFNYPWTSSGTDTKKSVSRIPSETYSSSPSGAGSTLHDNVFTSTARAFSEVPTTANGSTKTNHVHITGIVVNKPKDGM


Tests used:
[1] = target: T3, PD1 (on CHO-PD1 cells and on T cells) (human, UniProt Q15116 25-288); assay: flow cytometry on CHO-PD1 cells
T3 construct: whole, on cells; also called PD1抗原分子

[2] = target: T1, CD96 (on 293T-CD96 cells and on T cells) (human); assay: flow cytometry on T cells at day 11 (CD96 expression 96.05%), FITC anti-IgG detection
CD96-His = target: T2, CD96-His; assay: BLI (Fortebio), CD96-His antigen immobilised
[3] = target: T1, CD96 (on 293T-CD96 cells and on T cells) (human); assay: flow cytometry on 293T-CD96 cells, 1.25 μg antibody, FITC anti-IgG detection

T3 sequence (Q15116 25-288): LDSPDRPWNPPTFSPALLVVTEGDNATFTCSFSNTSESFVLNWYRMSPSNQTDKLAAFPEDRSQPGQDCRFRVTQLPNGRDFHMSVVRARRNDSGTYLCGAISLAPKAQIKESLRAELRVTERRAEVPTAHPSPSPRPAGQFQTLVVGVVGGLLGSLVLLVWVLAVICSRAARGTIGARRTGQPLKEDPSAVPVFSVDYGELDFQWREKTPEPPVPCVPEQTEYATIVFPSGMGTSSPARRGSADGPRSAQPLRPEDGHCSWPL

Binder | binding result [1] | FITC-IgG的表达 (percent positive cells) [2] | Kd (CD96-His) | FITC-IgG的表达率 (percent positive cells) [3]
CD96 ScFv-Holes-PD1 ScFv-Knobes (bispecific antibody, human IgG4 S228P, Knob-into-hole heterodimer of two scFv-Fc chains) chain 1: DVVMTQTPLTLSVTIGQPASISCKSSQSLLDSDGKTYLNWLLQRPGESPKLLIYLVSKLDSGVPDRFTGSGSGTDFTLKISRVEAEDLGVYYCLQATHFPWTFGGGTKLEIKGSTSGSGKPGSGEGSTKGQVTLKESGPGILQPSQTLSLTCSFSGFSLDTFGMGVGWIRQSSGKGLEWLAHIWWDDDKFYNPALKSRLTVSKDTSKNQVFLKIANVDTADTATYYCAHYYGSLSFDVWGTGTTVTVSSESKYGPPCPPCPAPEFLGGPSVFLFPPKPKDTLMISRTPEVTCVVVDVSQEDPEVQFNWYVDGVEVHNAKTKPREEQFNSTYRVVSVLTVLHQDWLNGKEYKCKVSNKGLPSSIEKTISKAKGQPREPQVCTLPPSQEEMTKNQVSLSCAVKGFYPSDIAVEWESNGQPENNYKTTPPVLDSDGSFFLVSKLTVDKSRWQEGNVFSCSVMHEALHNHYTQKSLSLSLGK chain 2: EIVLTQSPATLSLSPGERATLSCRASQSVSSYLAWYQQKPGQAPRLLIYDASNRATGIPARFSGSGSGTDFTLTISSLEPEDFAVYYCQQSSNWPRTFGQGTKVEIKGSTSGSGKPGSGEGSTKGQVQLVESGGGVVQPGRSLRLDCKASGITFSNSGMHWVRQAPGKGLEWVAVIWYDGSKRYYADSVKGRFTISRDNSKNTLFLQMNSLRAEDTAVYYCATNDDYWGQGTLVTVSSESKYGPPCPPCPAPEFLGGPSVFLFPPKPKDTLMISRTPEVTCVVVDVSQEDPEVQFNWYVDGVEVHNAKTKPREEQFNSTYRVVSVLTVLHQDWLNGKEYKCKVSNKGLPSSIEKTISKAKGQPREPQVYTLPPCQEEMTKNQVSLWCLVKGFYPSDIAVEWESNGQPENNYKTTPPVLDSDGSFFLYSKLTVDKSRWQEGNVFSCSVMHEALHNHYTQKSLSLSLGK | binds | – | – | –
CD96 ScFv-Fc (scFv, Monospecific scFv-Fc control ('单抗'); also called CD96单抗; CD96抗体; not shown: Fc of the monospecific ScFv-Fc) DVVMTQTPLTLSVTIGQPASISCKSSQSLLDSDGKTYLNWLLQRPGESPKLLIYLVSKLDSGVPDRFTGSGSGTDFTLKISRVEAEDLGVYYCLQATHFPWTFGGGTKLEIKGSTSGSGKPGSGEGSTKGQVTLKESGPGILQPSQTLSLTCSFSGFSLDTFGMGVGWIRQSSGKGLEWLAHIWWDDDKFYNPALKSRLTVSKDTSKNQVFLKIANVDTADTATYYCAHYYGSLSFDVWGTGTTVTVSS | – | 96.1% | 30.8 nM | 86.7%

Reference: patent CN112961245A (CHONGQING PREC BIOTECH CO LTD, dated 2021)
